From publication PMC6143433 (Biochemistry, 2018) come the findings set out here.

The series deals with the molecule itself. Description: SEC. (SEC sorts molecules by how far they enter the pores of the column.)

B1: MftE from M. ulcerans (enzyme, UniProt A0PM51 1-250, looked up)
chain: MNSSYHRRVPVLGELGTSTSSQLPSTWPSILIPLGSTEQHGPHLPLDTDTRIATAVGRAVATRMHGRLTQCQPGWLLAPPIAYGASGEHQSFAGTISIGAEALRVLLLEYGRSAACWADRLVFVNGHGGNVEALRGAVRQLRAEGRDAGWSACGSAGGDAHAGHTETSVLLHISPEVVLTDRLSAGNAAPLAELLPSLRRGGVAAVSPIGVLGDPTTATAVEGRRIFAEMVDDCVSRIARWTPGPDGMLT
A word on the stoichiometry N: it is the number of molecules, sites or subunits per partner or assembly. As to B1, the “stoichiometry N” value is 8.
